{"source": "paper PMC3677877", "about": "(PLoS ONE, 2013)", "molecules": {"B1": {"name": "recombinant Kgp propeptide (thrombin-cleaved; used as DTT-stabilised monomer in the inhibition assays) (domain or fragment)", "chain": "QSAKIKLDAPTTRTTCTNNSFKQFDASFSFNEVELTKVETKGGTFASVSIPGAFPTGEVGSPEVPAVRKLIAVPVGATPVVRVKSFTEQVYSLNQYGSEKLMPHQPSMSKSDDPEKVPFVYNAAAYARKGFVGQELTQVEMLGTMRGVRIAALTINPVQYDVVANQLKVRNNIEIEVSFQGADEVATQRLYDASFSPYFETAYKQLFNR"}}, "key": {"[1]": {"target": "rKgp: mature recombinant Kgp catalytic domain with the ABM1 motif (Gly681-Ala710) deleted (Porphyromonas gingivalis W50)", "assay": "enzyme inhibition kinetics"}, "[2]": {"target": "rKgp: mature recombinant Kgp catalytic domain with the ABM1 motif (Gly681-Ala710) deleted (Porphyromonas gingivalis W50)"}, "SEC": {"target": "the molecule itself", "assay": "SEC"}}, "note": "Values joined by “and” are separate entries in the source; they are usually repeats but may differ in a detail not shown here. Equal entries are not always repeated."}
{"molecule": "recombinant Kgp propeptide (thrombin-cleaved; used as DTT-stabilised monomer in the inhibition assays) (from UniProt Q51817 20-228) (domain or fragment)", "values": [{"measurement": "Ki", "setting": "[1]", "value": "2010 nM and 2040 nM"}]}
{"molecule": "iodoacetylated Kgp propeptide monomer (from UniProt Q51817 20-228) (domain or fragment)", "values": [{"measurement": "inhibition of rKgp by the iodoacetylated monomer (100 mg/L), substrate DQ-BSA", "setting": "[2]", "value": 28, "unit": "% inhibition"}]}
{"molecule": "B1", "values": [{"measurement": "stoichiometry N", "setting": "SEC", "value": 2}]}
